According to paper doi:10.1101/2021.07.06.451098:

How the values were obtained:
[1] = target: VAR2CSA ectodomain (residue 1-2630) of Plasmodium falciparum 3D7 (Plasmodium falciparum 3D7); test: SEC
[2] = target: VAR2CSA ectodomain (residue 1-2630) of Plasmodium falciparum 3D7 (Plasmodium falciparum 3D7); test: cross-linking

VAR2CSA ectodomain (residue 1-2630) of Plasmodium falciparum 3D7 (domain or fragment)
stoichiometry N [1]: 2
stoichiometry N [2]: 2
